Assay results as given in US20140087995A1 (published 2014).
Numbered stars: 1 amine (or outer) side, 2 acyl side, 3 side chain; on linkers, the order of the positions; unused ones are H or OH. Bridge positions count the residues as written; N and C are the ends. Square brackets hold non-standard residues; d marks the D form. Side chains are listed from the residue outwards. Ends that are not written are not given here. * marks the point of attachment. C20 diacid = O=C(O)CCCCCCCCCCCCCCCCCCC(=O)*; γGlu = O=C(O)[C@H](CCC(=O)[*:2])N[*:1]

T1: human amylin receptor (Amylin 3(a) receptor: human calcitonin receptor co-expressed with RAMP-3) (human, UniProt P30988 25-474; O60896 24-148, limits assumed)
T1 construct: whole, on cells; Used as cell membranes prepared from the Amylin 3(a)/CRE-luc BHK cells (Assay V); the complex is called the human amylin receptor; also called hAmylin-R; hAmylinR
T1 sequence (looked up) 1: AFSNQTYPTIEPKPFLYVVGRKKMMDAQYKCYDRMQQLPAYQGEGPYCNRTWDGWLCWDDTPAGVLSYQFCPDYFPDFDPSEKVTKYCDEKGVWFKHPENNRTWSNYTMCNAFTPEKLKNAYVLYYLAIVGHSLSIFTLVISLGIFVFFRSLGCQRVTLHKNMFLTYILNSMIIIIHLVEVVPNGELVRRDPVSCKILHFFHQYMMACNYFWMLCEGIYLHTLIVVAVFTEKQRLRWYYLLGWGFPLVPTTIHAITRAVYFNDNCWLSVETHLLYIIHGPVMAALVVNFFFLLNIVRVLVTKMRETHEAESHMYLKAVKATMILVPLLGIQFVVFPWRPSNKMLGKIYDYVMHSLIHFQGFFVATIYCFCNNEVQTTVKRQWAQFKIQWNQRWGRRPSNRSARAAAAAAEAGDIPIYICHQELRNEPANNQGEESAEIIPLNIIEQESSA
T1 sequence (looked up) 2: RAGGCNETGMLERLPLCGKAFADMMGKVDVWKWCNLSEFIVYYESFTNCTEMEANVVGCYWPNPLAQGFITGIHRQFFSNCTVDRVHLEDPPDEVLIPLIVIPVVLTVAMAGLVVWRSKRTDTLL


These binders were tested against T1, human amylin receptor (Amylin 3(a) …) (assay: SPA competition binding, displacement of 125I-rat amylin from membranes of BHK cells with human calcitonin receptor + RAMP-3 (Assay V)).
Procedure: The binding assay was performed using scintillation proximity assay (SPA) beads (RPNQ0001) from PerkinElmer and cell membranes from the Amylin 3(a)/CRE-luc cells (as described in Assay (II)) were used. Membranes were prepared in the following way; the cells were rinsed with PBS and incubated with Versene for approximately 5 min before harvesting. The cells were flushed with PBS and the cell-suspension was centrifuged for 5 min at 1000 rpm. Cells were homogenized (ultrathurrax) in a buffer containing 20 mM Na-HEPES and 10 mM EDTA (pH 7.4) and centrifuged at 20.000 rpm for 15 min. The resulting pellet was resuspended, homogenized and centrifuged (20.000 rpm, 15 min) in a buffer containing 20 mM Na-HEPES and 0.1 mM EDTA (pH 7.4, buffer 2). The resulting pellet was resuspended in buffer 2 and protein concentration was measured (BCA protein Assay, Pierce). The homogenate was kept cold during the whole procedure. The membranes were kept at −80° C. until use. The assay was performed in a 384 well Optiplate (PerkinElmer) in a total volume of 40 ul. Membranes were mixed with SPA beads. Final concentration of membranes 35 ng/μL final and SPA beads was 0.05 mg/well. Test-compounds were dissolved in DMSO and further diluted in assay buffer (50 mM Hepes, pH 7.4, 1 mM CaCl2, 5 mM MgCl₂, 0.1% OA and 0.02% Tween20). […] The final mixture was incubated with shaking at 400 rpm for 120 min at 25° C. prior to centrifugation (1500 rpm, 10 min). Samples were analyzed on TopCounter™ (Packard). The IC₅₀ was calculated using (one site binding competition analysis) GraphPad Prism5 as a measure of receptor affinity.

Binder | IC50 [nM]
K([γGlu-γGlu-C20 diacid])CNTATCATQRLA[dD]FLRHSSPNFGAIPSSTNVGSRTY-NH2 (disulfide 2-7; N-terminus assumed; SMILES CC[C@H](C)[C@H](NC(=O)[C@H](C)NC(=O)CNC(=O)[C@H](Cc1ccccc1)NC(=O)[C@H](CC(N)=O)NC(=O)[C@@H]1CCCN1C(=O)[C@H](CO)NC(=O)[C@H](CO)NC(=O)[C@H](Cc1c[nH]cn1)NC(=O)[C@H](CCCNC(=N)N)NC(=O)[C@H](CC(C)C)NC(=O)[C@H](Cc1ccccc1)NC(=O)[C@@H](CC(=O)O)NC(=O)[C@H](C)NC(=O)[C@H](CC(C)C)NC(=O)[C@H](CCCNC(=N)N)NC(=O)[C@H](CCC(N)=O)NC(=O)[C@@H](NC(=O)[C@H](C)NC(=O)[C@@H]1CSSC[C@H](NC(=O)[C@@H](N)CCCCNC(=O)CC[C@H](NC(=O)CC[C@H](NC(=O)CCCCCCCCCCCCCCCCCCC(=O)O)C(=O)O)C(=O)O)C(=O)N[C@@H](CC(N)=O)C(=O)N[C@@H]([C@@H](C)O)C(=O)N[C@@H](C)C(=O)N[C@@H]([C@@H](C)O)C(=O)N1)[C@@H](C)O)C(=O)N1CCC[C@H]1C(=O)N[C@@H](CO)C(=O)N[C@@H](CO)C(=O)N[C@H](C(=O)N[C@@H](CC(N)=O)C(=O)N[C@H](C(=O)NCC(=O)N[C@@H](CO)C(=O)N[C@@H](CCCNC(=N)N)C(=O)N[C@H](C(=O)N[C@@H](Cc1ccc(O)cc1)C(N)=O)[C@@H](C)O)C(C)C)[C@@H](C)O) | 0.365
K([γGlu-γGlu-C20 diacid])CNTATCATQRLADFLRHSSPNFGAIPSSTNVGPRTY-NH2 (disulfide 2-7, modifications are with respect to human amylin; also called compound 130) | 0.453
K([γGlu-γGlu-C20 diacid])CNTATCATQRLANFLRHSSPNFGAIPSSTPVGPRTY-NH2 (disulfide 2-7; N-terminus assumed; SMILES CC[C@H](C)[C@H](NC(=O)[C@H](C)NC(=O)CNC(=O)[C@H](Cc1ccccc1)NC(=O)[C@H](CC(N)=O)NC(=O)[C@@H]1CCCN1C(=O)[C@H](CO)NC(=O)[C@H](CO)NC(=O)[C@H](Cc1c[nH]cn1)NC(=O)[C@H](CCCNC(=N)N)NC(=O)[C@H](CC(C)C)NC(=O)[C@H](Cc1ccccc1)NC(=O)[C@H](CC(N)=O)NC(=O)[C@H](C)NC(=O)[C@H](CC(C)C)NC(=O)[C@H](CCCNC(=N)N)NC(=O)[C@H](CCC(N)=O)NC(=O)[C@@H](NC(=O)[C@H](C)NC(=O)[C@@H]1CSSC[C@H](NC(=O)[C@@H](N)CCCCNC(=O)CC[C@H](NC(=O)CC[C@H](NC(=O)CCCCCCCCCCCCCCCCCCC(=O)O)C(=O)O)C(=O)O)C(=O)N[C@@H](CC(N)=O)C(=O)N[C@@H]([C@@H](C)O)C(=O)N[C@@H](C)C(=O)N[C@@H]([C@@H](C)O)C(=O)N1)[C@@H](C)O)C(=O)N1CCC[C@H]1C(=O)N[C@@H](CO)C(=O)N[C@@H](CO)C(=O)N[C@H](C(=O)N1CCC[C@H]1C(=O)N[C@H](C(=O)NCC(=O)N1CCC[C@H]1C(=O)N[C@@H](CCCNC(=N)N)C(=O)N[C@H](C(=O)N[C@@H](Cc1ccc(O)cc1)C(N)=O)[C@@H](C)O)C(C)C)[C@@H](C)O, modifications are with respect to human amylin) | 0.88
K([γGlu-γGlu-C20 diacid])CNTATCATQRLAEFLRHSSPNFGAIPSSTNVGRETY-NH2 (disulfide 2-7; N-terminus assumed; SMILES CC[C@H](C)[C@H](NC(=O)[C@H](C)NC(=O)CNC(=O)[C@H](Cc1ccccc1)NC(=O)[C@H](CC(N)=O)NC(=O)[C@@H]1CCCN1C(=O)[C@H](CO)NC(=O)[C@H](CO)NC(=O)[C@H](Cc1c[nH]cn1)NC(=O)[C@H](CCCNC(=N)N)NC(=O)[C@H](CC(C)C)NC(=O)[C@H](Cc1ccccc1)NC(=O)[C@H](CCC(=O)O)NC(=O)[C@H](C)NC(=O)[C@H](CC(C)C)NC(=O)[C@H](CCCNC(=N)N)NC(=O)[C@H](CCC(N)=O)NC(=O)[C@@H](NC(=O)[C@H](C)NC(=O)[C@@H]1CSSC[C@H](NC(=O)[C@@H](N)CCCCNC(=O)CC[C@H](NC(=O)CC[C@H](NC(=O)CCCCCCCCCCCCCCCCCCC(=O)O)C(=O)O)C(=O)O)C(=O)N[C@@H](CC(N)=O)C(=O)N[C@@H]([C@@H](C)O)C(=O)N[C@@H](C)C(=O)N[C@@H]([C@@H](C)O)C(=O)N1)[C@@H](C)O)C(=O)N1CCC[C@H]1C(=O)N[C@@H](CO)C(=O)N[C@@H](CO)C(=O)N[C@H](C(=O)N[C@@H](CC(N)=O)C(=O)N[C@H](C(=O)NCC(=O)N[C@@H](CCCNC(=N)N)C(=O)N[C@@H](CCC(=O)O)C(=O)N[C@H](C(=O)N[C@@H](Cc1ccc(O)cc1)C(N)=O)[C@@H](C)O)C(C)C)[C@@H](C)O, modifications are with respect to human amylin) | 0.957

Now those with a lower IC50, led by results:

IC50 [nM] | Binder
0.163 | K([γGlu-C20 diacid])CNTATCATQRLAEFLRHSSPNFGAIPSSTNVGPRTY-NH2 (disulfide 2-7; N-terminus assumed; SMILES CC[C@H](C)[C@H](NC(=O)[C@H](C)NC(=O)CNC(=O)[C@H](Cc1ccccc1)NC(=O)[C@H](CC(N)=O)NC(=O)[C@@H]1CCCN1C(=O)[C@H](CO)NC(=O)[C@H](CO)NC(=O)[C@H](Cc1c[nH]cn1)NC(=O)[C@H](CCCNC(=N)N)NC(=O)[C@H](CC(C)C)NC(=O)[C@H](Cc1ccccc1)NC(=O)[C@H](CCC(=O)O)NC(=O)[C@H](C)NC(=O)[C@H](CC(C)C)NC(=O)[C@H](CCCNC(=N)N)NC(=O)[C@H](CCC(N)=O)NC(=O)[C@@H](NC(=O)[C@H](C)NC(=O)[C@@H]1CSSC[C@H](NC(=O)[C@@H](N)CCCCNC(=O)CC[C@H](NC(=O)CCCCCCCCCCCCCCCCCCC(=O)O)C(=O)O)C(=O)N[C@@H](CC(N)=O)C(=O)N[C@@H]([C@@H](C)O)C(=O)N[C@@H](C)C(=O)N[C@@H]([C@@H](C)O)C(=O)N1)[C@@H](C)O)C(=O)N1CCC[C@H]1C(=O)N[C@@H](CO)C(=O)N[C@@H](CO)C(=O)N[C@H](C(=O)N[C@@H](CC(N)=O)C(=O)N[C@H](C(=O)NCC(=O)N1CCC[C@H]1C(=O)N[C@@H](CCCNC(=N)N)C(=O)N[C@H](C(=O)N[C@@H](Cc1ccc(O)cc1)C(N)=O)[C@@H](C)O)C(C)C)[C@@H](C)O, modifications are with respect to human amylin)
0.179 | K([γGlu-C20 diacid])CNTATCATQRLAEFLRHSSPNFGAIPSSTNVGPHTY-NH2 (disulfide 2-7, modifications are with respect to human amylin)
0.082 | K([γGlu-C20 diacid])CNTATCATQRLAHFLRHSSPNFGAIPSSTPVGPNTY-NH2 (disulfide 2-7; N-terminus assumed; SMILES CC[C@H](C)[C@H](NC(=O)[C@H](C)NC(=O)CNC(=O)[C@H](Cc1ccccc1)NC(=O)[C@H](CC(N)=O)NC(=O)[C@@H]1CCCN1C(=O)[C@H](CO)NC(=O)[C@H](CO)NC(=O)[C@H](Cc1c[nH]cn1)NC(=O)[C@H](CCCNC(=N)N)NC(=O)[C@H](CC(C)C)NC(=O)[C@H](Cc1ccccc1)NC(=O)[C@H](Cc1c[nH]cn1)NC(=O)[C@H](C)NC(=O)[C@H](CC(C)C)NC(=O)[C@H](CCCNC(=N)N)NC(=O)[C@H](CCC(N)=O)NC(=O)[C@@H](NC(=O)[C@H](C)NC(=O)[C@@H]1CSSC[C@H](NC(=O)[C@@H](N)CCCCNC(=O)CC[C@H](NC(=O)CCCCCCCCCCCCCCCCCCC(=O)O)C(=O)O)C(=O)N[C@@H](CC(N)=O)C(=O)N[C@@H]([C@@H](C)O)C(=O)N[C@@H](C)C(=O)N[C@@H]([C@@H](C)O)C(=O)N1)[C@@H](C)O)C(=O)N1CCC[C@H]1C(=O)N[C@@H](CO)C(=O)N[C@@H](CO)C(=O)N[C@H](C(=O)N1CCC[C@H]1C(=O)N[C@H](C(=O)NCC(=O)N1CCC[C@H]1C(=O)N[C@@H](CC(N)=O)C(=O)N[C@H](C(=O)N[C@@H](Cc1ccc(O)cc1)C(N)=O)[C@@H](C)O)C(C)C)[C@@H](C)O, modifications are with respect to human amylin)
0.172 | K([γGlu-γGlu-C20 diacid])CNTATCATQRLADFLRHSSPNFGAIPSSTNVGPETY-NH2 (disulfide 2-7, modifications are with respect to human amylin)
